# Results from patent US20240026019A1 (Innovent, published 2024).
# T1: rh-TNFR2-His (recombinant human TNFR2, His tag) (human, UniProt P20333 23-257)
# T1 construct: Soluble antigen of the ForteBio assay; not shown: His tag
# T1 sequence (looked up): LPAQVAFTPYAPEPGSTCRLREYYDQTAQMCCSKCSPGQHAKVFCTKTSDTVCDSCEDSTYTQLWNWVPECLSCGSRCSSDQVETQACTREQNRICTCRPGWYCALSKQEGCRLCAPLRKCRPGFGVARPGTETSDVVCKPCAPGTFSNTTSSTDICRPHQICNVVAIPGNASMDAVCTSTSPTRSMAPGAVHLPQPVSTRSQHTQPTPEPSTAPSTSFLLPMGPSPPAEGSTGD
# T2: CYNO-TNFR2-His (cynomolgus monkey TNFR2, His tag) (cynomolgus monkey, UniProt A0A2K5VET2 132-366)
# T2 construct: Soluble antigen of the ForteBio assay; also called cTNFR2; not shown: His tag
# T2 sequence: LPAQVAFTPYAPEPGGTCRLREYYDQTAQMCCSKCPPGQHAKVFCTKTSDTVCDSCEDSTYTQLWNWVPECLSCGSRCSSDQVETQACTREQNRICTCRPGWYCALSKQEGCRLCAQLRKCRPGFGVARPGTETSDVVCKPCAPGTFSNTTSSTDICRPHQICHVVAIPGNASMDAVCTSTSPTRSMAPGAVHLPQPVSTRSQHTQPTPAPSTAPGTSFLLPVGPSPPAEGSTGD
# T3: hTNFR2 protein (coated on the microplate in the blocking ELISA) (human, UniProt P20333 23-257)
# T3 construct: The construct coated in the ELISA is not described (it may or may not be the immunogen, Sino biological 10417-H03H)
# T3 sequence (looked up): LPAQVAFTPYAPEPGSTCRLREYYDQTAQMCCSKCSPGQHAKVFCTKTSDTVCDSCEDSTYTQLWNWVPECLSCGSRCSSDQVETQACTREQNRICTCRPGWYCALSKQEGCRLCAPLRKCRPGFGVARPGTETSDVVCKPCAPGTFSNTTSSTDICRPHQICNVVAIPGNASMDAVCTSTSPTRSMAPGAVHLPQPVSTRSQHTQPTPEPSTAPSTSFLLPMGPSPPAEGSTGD
# Assays:
# [1] = target: T1, rh-TNFR2-His (recombinant human TNFR2, …); experiment: BLI (ForteBio), antibody on sensor, 100 nM rh-TNFR2-His in solution, 1:1 model
# Procedure: (§1) In the present invention, the equilibrium dissociation constant (KD) for the binding of the 3 exemplary chimeric antibodies of the present invention described above to human TNFR2 (hTNFR2), cynomolgus monkey TNFR2 (cTNFR2), murine TNFR2(mTNFR2), and human TNFR1(hTNFR1) was determined by biological optical interferometry (ForteBio). For comparison, the equilibrium dissociation constant (KD) of a positive control antibody OPI (humanized antibody SBT-002e in WO 2017083525, VH sequence of SEQ ID NO: 58, VL sequence of SEQ ID NO: 59) was determined.
# (§2) The ForteBio affinity assay was performed according to the prior art (Estep, P, et al., High throughput solution based measurement of antibody-antigen affinity and epitope binning. MAbs, 2013.5(2): p. 270-278). Briefly, a sensor was equilibrated offline in an assay buffer for 30 min, and was equilibrated online for 60 s to establish a baseline. The purified antibodies obtained as described above were loaded online onto an AHQ sensor (ForteBio) for the ForteBio affinity assay. The sensor with the loaded antibodies was then exposed to each of 100 nM hTNFR2, cTNFR2, mTNFR2, and hTNFR1 antigens for 5 min before transferring the sensor to an assay buffer for 5 min of dissociation for dissociation rate measurement. The kinetic analysis was performed using a 1:1 binding model.
# [2] = target: T2, CYNO-TNFR2-His (cynomolgus monkey …); experiment: BLI (ForteBio), antibody on sensor, 100 nM CYNO-TNFR2-His in solution, 1:1 model
# Procedure: as §1, §2
# [3] = target: T3, hTNFR2 protein (coated on the …); experiment: blocking ELISA: hTNFR2 coated on the plate, binding of biotinylated TNFα blocked by the antibody; the table row is headed EC50; unit taken from the axis log Conc nM
# Procedure: The ability of the chimeric antibodies 3C4, 69B1, and 72G8 and the control antibody OPI to block the binding of human TNFα to hTNFR2 was assayed by ELISA.
# (§3) The hTNFR2 protein was resuspended and dissolved to a concentration of 2 μg/mL with PBS, and a microplate was coated with the protein and incubated overnight. The plate was blocked with 5% BSA for 1 h, and a biotinylated antigen (Recombinant Biotinylated TNFα protein (ACRO)) was diluted to 2 μg/mL and added to the plate at 10 μL/well. The antibodies prepared as described above (3C4, 69B1, and 72G8) were each diluted in a gradient starting from the maximum concentration of 300 nM for a total of 8 or 12 dilution gradients. The diluted antibodies were added at 100 μL/well and incubated in PBS on ice for 30 min. The antigen-antibody mixture was incubated in a microplate for 90 min and washed three times with PBS, and the supernatant was discarded. 100 μL of Avidin-HRP (Invitrogen) diluted at a 1:5000 ratio was added to each well, incubated at room temperature for 30 min, and washed six times with PBS. A TMB chromogenic solution (solarbio) was added to the plate at 100 μL/well for color development for 1 min, and the reaction was stopped by adding a stop buffer (solarbio) at 100 μL/well. The plate was read on a microplate reader at OD₄₅₀ and OD₆₂₀.
# [4] = target: T3, hTNFR2 protein (coated on the …); experiment: blocking ELISA: hTNFR2 coated on the plate, binding of biotinylated TNFα blocked by the antibody; unit taken from the axis Conc log(nM) [A]
# Procedure: as §3
# In a similar manner to that in Example 7, the ability of the humanized antibodies hz3C4.7, hz69b1.5, hz69b1.6, hz69b1.11, and hz69b1.20, and the control antibody OPI to block the binding of human TNFα to hTNFR2 was assayed by ELISA.
Binder,Kd [1],koff [1],kon [1],Kd [2],koff [2],kon [2],IC50 [3],IC50 [4]
"chimeric antibody 3C4 (antibody, human IgG1, kappa, V domains shown) VH: QVQLQQSGPELVKPGASVTISCKASDYSFTNYYIHWVKQRPGQGLEWIGWIYPGNVITKYHEKFKGKAILTADTSSTTAYMQLNSLTSEDSAVYFCARSRATGYFDYWGQGTTLTVSS VL: DIQMTQTTSSLSASLGDRVTISCRASQDIRNYLNWFQQKPDGTIKLLIYYTSRLHSGVPSRFSGSGSGTDYSLTISNLEQEDMATYFCQQFNTLPWTFGGGTKLEIKR",1.36 nM,0.00176 s⁻¹,1.29e+06 M⁻¹ s⁻¹,1.42 nM,0.00201 s⁻¹,1.41e+06 M⁻¹ s⁻¹,3.11 nM,24.2 nM
"positive control antibody OPI (humanized antibody SBT-002e in WO 2017083525) (antibody, V domains shown, also called Benchmark OPI) VH: QVTLKESGPALVKPTQTLTLTCTFSGFSLSTSGMGVGWIRQPPGKALEWLAHIWWDDDKFYNPSLKSRLTISKDTSKNQVVLTMTNMDPVDTATYYCARLTGTRYFDYWGQGTTVTVSS VL: DVQMTQSPSSLSASVGDRVTITCKASQDINKFIAWYQQKPGKAPKLLIHYTSTLQPGIPSRFSGSGSGRDYTFTISSLQPEDIATYYCLQYGNLWTFGGGTKVEIK",4.18 nM,0.000229 s⁻¹,54800 M⁻¹ s⁻¹,1.15 nM,0.000328 s⁻¹,284000 M⁻¹ s⁻¹,4.56 nM,38.2 nM
"chimeric antibody 69B1 (antibody, human IgG1, kappa, V domains shown) VH: QIQLVQSGPELKKPGETVKISCKASGYTFTDYSMNWVKQAPGKGLKWMGWLNTETGEPIYADDFKGRFVFSLETSASTAYLEINNLNDEDTATYFCAREAIYYGTSYVLDYWGQGTSVTVSS VL: DIVLTQSPASLAVSLGQRATISCRASESVEYYGTNFMQWYQQKPGQPPKLLIYSASNVESGVPARFSGSGSGTDFSLNIHPVEEDDIAVYFCQQSRKDPSTFGEGTNLEIKR",0.265 nM,0.000519 s⁻¹,1.96e+06 M⁻¹ s⁻¹,1.11 nM,0.00198 s⁻¹,1.79e+06 M⁻¹ s⁻¹,2.15 nM,
